Data: patent US20220153854A1 (Ablynx, published 2022)
Positions count from the first letter of the chain named.

Columns and labels:
cyno serum albumin [1] = biological target: T1, cyno serum albumin (cynomolgus monkey); experiment: Gyrolab in-solution affinity, 2 h incubation; 95% CI 9.7-10.7 nM
T1 construct: also called cyno SA; cynomolgus monkey serum albumin
Method: (§1) Under receptor-controlled measurements a serial dilution of OX40L (ranging from 1.3 μM-0.031 μM), IL-13 (ranging from 0.1 μM-0.25 fM), or serum albumin (ranging from 100 μM-3.2 μM) and a fixed amount of ISVD construct F027100187 (5 nM in case of OX40L, […] in case of IL-13 and 30 nM in case of HSA and cyno SA) were mixed to allow interaction and incubated for either 24 or 48 hours (in case of OX40L and IL-13) or 2 hours (in case of serum albumin) to reach equilibrium.
(§2) Biotinylated human OX40L/IL-13/serum albumin was captured in the microstructures of a Gyrolab Bioaffy 1000 CD, which contains columns of beads and was used as a molecular probe to capture free F027100187 from the equilibrated solution. The mixture of OX40L/IL13/serum albumin and F027100187 (containing free OX40UIL-13/serum albumin, free F027100187 and OX40L/IL13/serum albumin—F027100187 complexes) was allowed to flow through the beads, and a small percentage of free F027100187 was captured, which is proportional to the free ISVD construct concentration. A fluorescently labeled anti-ISVD antibody, ABH0086-Alexa647, was then injected to label any captured F027100187 and after rinsing away excess of fluorescent probe, the change in fluorescence was determined. Fitting of the dilution series was done using Gyrolab Analysis software, where KD- and receptor-controlled curves were analyzed to determine the KD value.

human IL-13 [2] = biological target: T2, human IL-13 (human, UniProt P35225 35-146, limits assumed); experiment: Gyrolab in-solution affinity, 48 h incubation; 95% CI 3.8-11.5 pM
T2 construct: Recombinant soluble protein; also called hIL-13; soluble hIL-13
T2 sequence (P35225 35-146 limits assumed): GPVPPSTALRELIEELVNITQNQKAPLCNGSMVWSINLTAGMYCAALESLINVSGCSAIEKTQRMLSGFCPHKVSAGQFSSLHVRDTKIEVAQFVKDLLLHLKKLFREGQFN
Method: as §1, §2

rhesus IL-13 [3] = biological target: T3, rhesus IL-13 (rhesus monkey, UniProt Q864V6 19-132, limits assumed); experiment: cell-based or functional assay
T3 sequence (Q864V6 19-132 limits assumed): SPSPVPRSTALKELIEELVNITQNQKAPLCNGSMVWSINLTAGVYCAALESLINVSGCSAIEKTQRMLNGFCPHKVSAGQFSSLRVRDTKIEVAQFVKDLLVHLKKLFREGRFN

cyno IL-13 [4] = biological target: T4, cyno IL-13 (cynomolgus monkey, UniProt Q0PW92 21-132); experiment: cell-based or functional assay
T4 sequence (Q0PW92 entry or part of it): as the sequence (P35225 35-146 limits assumed) above, with G1S, R10K, M42V, S67N, H83R, L100V counted along it

human IL-13 [5] = biological target: T2, human IL-13; experiment: cell-based or functional assay
mouse serum albumin = biological target: T5, mouse serum albumin (mouse, UniProt P07724 25-608); experiment: Gyrolab in-solution affinity, 2 h incubation; 95% CI 101-117 nM
T5 construct: also called mouse SA

human OX40L [6] = biological target: T6, human OX40L (human, UniProt P23510 51-183); experiment: Gyrolab in-solution affinity, 48 h incubation; 95% CI 98-120 pM
T6 construct: Protein in solution or immobilised (SPR, Gyrolab); construct not described; also called huOX40L; hOX40L
T6 sequence (looked up): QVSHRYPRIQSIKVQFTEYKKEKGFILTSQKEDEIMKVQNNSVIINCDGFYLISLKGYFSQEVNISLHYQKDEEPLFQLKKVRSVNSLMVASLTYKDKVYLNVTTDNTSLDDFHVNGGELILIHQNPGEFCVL
Method: as §1, §2

cyno serum albumin [7] = biological target: T1, cyno serum albumin; experiment: Gyrolab in-solution affinity, 2 h incubation; 95% CI 9.0-12.3 nM
Method: as §1, §2

human serum albumin = biological target: T7, human serum albumin (human, UniProt P02768 25-609); experiment: Gyrolab in-solution affinity, 2 h incubation; 95% CI 5.5-7.6 nM
T7 construct: also called HSA; HAS
T7 sequence (P02768 25-609 limits assumed): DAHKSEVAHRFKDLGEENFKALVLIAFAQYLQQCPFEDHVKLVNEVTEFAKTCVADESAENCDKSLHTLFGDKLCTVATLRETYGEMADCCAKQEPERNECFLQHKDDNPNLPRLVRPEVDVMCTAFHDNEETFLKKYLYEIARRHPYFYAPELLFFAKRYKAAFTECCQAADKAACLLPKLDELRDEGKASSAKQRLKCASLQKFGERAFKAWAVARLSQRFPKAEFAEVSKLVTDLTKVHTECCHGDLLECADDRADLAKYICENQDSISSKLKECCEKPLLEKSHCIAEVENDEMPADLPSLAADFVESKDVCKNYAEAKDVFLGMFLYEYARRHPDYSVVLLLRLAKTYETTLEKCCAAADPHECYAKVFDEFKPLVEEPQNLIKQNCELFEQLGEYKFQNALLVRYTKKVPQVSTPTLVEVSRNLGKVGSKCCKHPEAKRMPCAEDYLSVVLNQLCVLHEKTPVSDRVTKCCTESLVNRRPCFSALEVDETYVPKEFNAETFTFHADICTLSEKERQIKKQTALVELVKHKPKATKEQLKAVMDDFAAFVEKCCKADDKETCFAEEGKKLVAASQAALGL
Method: as §1, §2

human OX40L [8] = biological target: T6, human OX40L; experiment: Gyrolab in-solution affinity, 24 h incubation; 95% CI 108-141 pM
Method: as §1, §2

cyno IL-13 [9] = biological target: T4, cyno IL-13; experiment: Gyrolab in-solution affinity, 48 h incubation; 95% CI 9.5-13.9 pM
Method: as §1, §2

human OX40L [10] = biological target: T6, human OX40L; experiment: Gyrolab in-solution affinity, 24 h incubation; 95% CI 64.7-91.0 pM
Method: as §1, §2

human IL-13 [11] = biological target: T2, human IL-13; experiment: Gyrolab in-solution affinity, 48 h incubation; 95% CI 3.4-7.1 pM
Method: as §1, §2

cyno IL-13 [12] = biological target: T4, cyno IL-13; experiment: Gyrolab in-solution affinity, 48 h incubation; 95% CI 4.7-7.1 pM
Method: as §1, §2

rhesus IL-13 [13] = biological target: T3, rhesus IL-13; experiment: Gyrolab in-solution affinity, 48 h incubation; 95% CI 6.8-39.6 pM
Method: as §1, §2

cyno OX40L = biological target: T8, cyno OX40L (cynomolgus monkey, UniProt G7NVH7 51-183); experiment: Gyrolab in-solution affinity, 24 h incubation; 95% CI 101-156 pM
T8 construct: also called cyOX40L; cynomolgus monkey OX40L
T8 sequence: T6 sequence (looked up) with R5Q, K23E
Method: as §1, §2

rhesus IL-13 [14] = biological target: T3, rhesus IL-13; experiment: Gyrolab in-solution affinity, 48 h incubation; 95% CI 6.3-49.5 pM
Method: as §1, §2

human IL-13 [15] = biological target: T2, human IL-13; experiment: Gyrolab in-solution affinity, 48 h incubation; 95% CI 6.4-9.1 pM
Method: as §1, §2

human IL-13 [16] = biological target: T2, human IL-13; experiment: cell-based or functional assay; remark: listed apart in the source
human OX40L [17] = biological target: T6, human OX40L; experiment: cell-based or functional assay
cyno IL-13 [18] = biological target: T4, cyno IL-13; experiment: Gyrolab in-solution affinity, 48 h incubation; 95% CI 5.8-7.5 pM
Method: as §1, §2

cyno serum albumin [19] = biological target: T1, cyno serum albumin; experiment: Gyrolab in-solution affinity, 2 h incubation; 95% CI 8.3-10.9 nM
Method: as §1, §2

T1 sequence (A2V9Z4 25-608): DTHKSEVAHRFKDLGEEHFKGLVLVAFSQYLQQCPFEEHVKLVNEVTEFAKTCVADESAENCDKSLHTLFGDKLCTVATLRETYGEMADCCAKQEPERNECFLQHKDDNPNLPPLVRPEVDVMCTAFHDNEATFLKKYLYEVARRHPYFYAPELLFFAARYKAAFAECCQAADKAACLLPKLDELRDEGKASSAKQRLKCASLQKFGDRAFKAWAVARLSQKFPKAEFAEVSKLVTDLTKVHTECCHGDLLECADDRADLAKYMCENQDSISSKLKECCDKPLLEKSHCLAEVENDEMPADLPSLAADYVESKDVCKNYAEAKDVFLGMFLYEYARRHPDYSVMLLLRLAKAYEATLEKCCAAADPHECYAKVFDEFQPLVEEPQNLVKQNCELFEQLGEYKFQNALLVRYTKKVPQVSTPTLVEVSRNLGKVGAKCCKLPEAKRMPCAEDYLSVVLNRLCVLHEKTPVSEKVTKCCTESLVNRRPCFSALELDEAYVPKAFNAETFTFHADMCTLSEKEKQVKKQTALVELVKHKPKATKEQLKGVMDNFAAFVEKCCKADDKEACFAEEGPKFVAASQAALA

Kd (cyno serum albumin [1]): 10200 pM | Kd (human IL-13 [2]): 7.6 pM | eotaxin release assay (IC50, pM) (rhesus IL-13 [3]): 858 pM | eotaxin release assay (IC50, pM) (cyno IL-13 [4]): 1940 pM | eotaxin release assay (IC50, pM) (human IL-13 [5]): 259 pM | Kd (mouse serum albumin): 109000 pM | Kd (human OX40L [6]): 109 pM | Kd (cyno serum albumin [7]): 10600 pM | Kd (human serum albumin): 6600 pM | Kd (human OX40L [8]): 125 pM | Kd (cyno IL-13 [9]): 11.7 pM | Kd (human OX40L [10]): 77.8 pM | Kd (human IL-13 [11]): 5.3 pM | Kd (cyno IL-13 [12]): 5.9 pM | Kd (rhesus IL-13 [13]): 23.2 pM | Kd (cyno OX40L): 128 pM | Kd (rhesus IL-13 [14]): 14.1 pM | Kd (human IL-13 [15]): 7.8 pM | CCL26 IC50 (pM), triculture assay (human IL-13 [16]): 40.7 pM | IL-5 IC50 (nM), triculture assay (human OX40L [17]): 1 nM | Kd (cyno IL-13 [18]): 6.7 pM | Kd (cyno serum albumin [19]): 9600 pM
B1: ISVD construct F027100187 (other)
chain: DVQLVESGGGVVQPGGSLRLSCAASRSIGRYDRMGWYRHRPGEPRELVATITGGSSINYGDSVKGRFTISIDNSKNTVYLQMNSLRPEDTALYYCNFNKYQISRDTWGQGTLVTVSSGGGGSGGGSEVQLVESGGGVVQPGGSLRLSCAASGRTFSSYRMGWFRQAPGKEREFVAALSGDGYSTYTANSVKGRFTISRDNSKNTVYLQMNSLRPEDTALYYCAAKLQYVSGWSYDYPYWGQGTLVTVSSGGGGSGGGSEVQLVESGGGVVQPGGSLRLSCAASGFTFRSFGMSWVRQAPGKGPEWVSSISGSGSDTLYADSVKGRFTISRDNSKNTLYLQMNSLRPEDTALYYCTIGGSLSRSSQGTLVTVSSGGGGSGGGSEVQLVESGGGVVQPGGSLRLSCAASGFTFNNYAMKWVRQAPGKGLEWVSSITTGGGSTDYADSVKGRFTISRDNSKNTLYLQMNSLRPEDTALYYCANVPFGYYSEHFSGLSFDYRGQGTLVTVSSA
notes: Tetravalent, trispecific single-chain construct of four VHH (ISVD) domains: one against OX40L, two against IL-13, one against serum albumin; also called F0271000187; F27100187
